Laboratory results published in PMC8034803.
Read-outs that look alike come from different tables or passages of the source.

Assays:
PABP1 (Homo sapiens) = PABP1 (Homo sapiens) (UniProt P11940); conditions: cited from earlier work
PABP1 [1] = target: T1, PABP1 (human, UniProt P11940 1-636); assay: EMSA
WT NS1-RBD = WT NS1-RBD (Influenza A virus A/Udorn/307/1972 …, UniProt P03495 1-73); assay: fluorescence anisotropy
PABP1 [2] = target: T1, PABP1; assay: EMSA; remark: listed apart in the source
PABP1 [3] = target: T1, PABP1; assay: EMSA; remark: listed apart in the source

T1 sequence (P11940 whole entry): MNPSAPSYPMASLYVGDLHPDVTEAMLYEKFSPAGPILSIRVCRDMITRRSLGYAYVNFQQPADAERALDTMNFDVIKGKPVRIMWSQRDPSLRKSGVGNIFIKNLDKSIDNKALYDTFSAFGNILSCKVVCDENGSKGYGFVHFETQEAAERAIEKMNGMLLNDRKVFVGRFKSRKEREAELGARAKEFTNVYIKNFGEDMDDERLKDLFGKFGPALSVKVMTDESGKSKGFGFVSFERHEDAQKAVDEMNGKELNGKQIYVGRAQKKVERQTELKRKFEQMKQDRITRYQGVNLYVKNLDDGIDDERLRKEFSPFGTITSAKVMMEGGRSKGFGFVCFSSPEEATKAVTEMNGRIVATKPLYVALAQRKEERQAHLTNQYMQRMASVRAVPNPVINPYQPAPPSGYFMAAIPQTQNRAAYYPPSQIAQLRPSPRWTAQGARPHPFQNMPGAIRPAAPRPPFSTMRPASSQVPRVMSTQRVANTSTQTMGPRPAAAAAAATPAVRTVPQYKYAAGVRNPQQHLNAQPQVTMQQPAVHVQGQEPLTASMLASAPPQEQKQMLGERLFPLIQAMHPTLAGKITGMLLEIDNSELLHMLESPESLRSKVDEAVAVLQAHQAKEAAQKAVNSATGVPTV
WT NS1-RBD, sequence (P03495 1-73): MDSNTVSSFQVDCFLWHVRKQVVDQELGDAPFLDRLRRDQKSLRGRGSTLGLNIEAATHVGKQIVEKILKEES
PABP1 (Homo sapiens), sequence (P11940 whole entry): as the sequence (P11940 whole entry) above

Molecule: NS1 (from UniProt Q8QPI8)
- Kd (PABP1 (Homo sapiens)): 20 nM

Molecule: GCUAUCCAGAUUCUGAUU (ssRNA) [ssCR1]
- binding result (PABP1 [1]): no binding

B1: dsRK1 (dsRNA)
RNA 1: CCAUCCUCUACAGGCG
RNA 2: CGCCUGUAGAGGAUGG
- Kd (WT NS1-RBD): 76 ± 9 nM

B2: poly(A)60 (ssRNA)
RNA: AAAAAAAAAAAAAAAAAAAAAAAAAAAAAAAAAAAAAAAAAAAAAAAAAAAAAAAAAAAA
- binding result (PABP1 [2]): binds

Molecule: AAAAAAAAAAAAAAAAAA (ssRNA) [poly(A)18]
- binding result (PABP1 [3]): binds
